Results as given in US20240409960A1, “METHOD FOR CONTROLLING PROTEIN FUNCTION” (The University of Tokyo, priority 2021, published 2024).

Tests used:
Assay type in all cases: cell-based, human
[1] = test system: StopFluc luciferase reporter gene in HEK293FT cells; assay: luciferase-based HDR (Homology-directed repair) assay of Cas9 endonuclease activity
From the text: For constructing a luciferase reporter for detecting Cas9 endonuclease activity, the sequence encoding firefly luciferase (Fluc) was amplified from pGL4.31 vector (Promega). The firefly luciferase with an in-flamed stop codon (StopFluc) was produced by an overlapping PCR extension method. The primer (5′-[…]-3′: SEQ ID No: 40) was used for PCR. The Stop-Fluc construct was inserted into the HindII-XhoI site of pcDNA 3.1/V 5-HisA having the CMV promoter. A luciferase donor vector was constructed by inserting the reverse firefly luciferase sequence into the XhoI and HindIII site of the bacterial expression pCold-I vector (Clontech), and was used as donor DNA.
HEK293T cells (American Type Culture Collection: ATCC) were cultured at 37° C. under 5% CO2 in Dulbecco's Modified Eagle Medium (DMEM: Thermo Fisher Scientific) supplemented with 10% fetal bovine serum (FBS: Thermo Fisher Scientific), 100 units/ml of penicillin and 100 μg/ml of streptomycin (Thermo Fisher Scientific) and 2 mM GlutaMAX (Thermo Fisher Scientific).
For luciferase assay, HEK 293 cells were plated at 25,000 cells per well on a 96-well flat clear-bottom microplate (Greiner Bio-One), and were then cultured for 24 hours at 37° C. in 5% CO2. The cells were transfected with cDNAs encoding destabilized Cas9 or an empty vector (negative control) along with the luciferase reporter (StopFluc), donor DNA (Fluc) and Cas9 encoding gRNA, using Lipofectamine 3000 (Thermo Fisher Scientific) at 37° C. The total amount of DNA was 50 ng per well. The transfection ratio of the destabilized Cas9, the luciferase reporter, the donor DNA, and the gRNA was set to be equal (1:1:1:1). […] Bioluminescence measurement was performed for 1 second per well at room temperature using a Centro XS^3 LB 960 plate-reading luminometer (Berthold Technologies).
Full-length Cas9 was used as a positive control. […] Bioluminescence measurement was performed for 1 second per well at room temperature using a Centro XS^3 LB 960 plate-reading luminometer (Berthold Technologies).

[2] = test system: FRT sites (Floxed (FRT)-STOP Fluc reporter) in HEK293 cells; assay: luciferase assay of Flp-FRT DNA recombination in HEK293 cells; settings: 5 ng plasmid, 24 or 48 hours
Method: (§1) For constructing the luciferase reporters detecting for the activities of Flp-FRT recombinase, VCre-Vlox recombinase and Dre-rox recombinase, the FRT site ([…]: SEQ ID No: 37), the Vlox site ([…]: SEQ ID No: 38), the rox site ([…]: SEQ ID No: 39), were inserted into HindIII and KpnI sites and ClaI and EcoRI sites in the pcDNA3.1 (+) vector of the luciferase reporter (of loxP-stop-loxP-Fluc).
(§2) For luciferase assay, HEK 293 cells were plated at 25,000 cells per well on a 96-well flat white microplate (Thermo Fisher Scientific), and were then cultured for 24 hours at 37° C. in 5% CO2. The cells were transfected with cDNAs encoding destabilized Cre along with the luciferase reporter (loxP-stop-loxP Fluc), using X-tremeGENE9 reagent (Merck Millipore) at 37° C. The total amount of DNA was 50 ng per well. Twenty-four hours after the transfection, TMP or DMSO was added into the cells, and the cells were further cultured for 24 hours or 48 hours. Just before the luciferase assay, the medium was replaced with Hanks' balanced salt solution (HBSS) (Thermo Fisher Scientific) containing 0.2 mM D-luciferin potassium salt. Bioluminescence measurement was performed for 1 second per well at room temperature using a Centro XS^3 LB 960 plate-reading luminometer (Berthold Technologies).

[3] = test system: Vlox sites (Floxed (Vlox)-STOP Fluc reporter) in HEK293 cells; assay: luciferase assay of VCre-Vlox DNA recombination in HEK293 cells; settings: 5 ng plasmid, TMP 10 nM or 500 nM or DMSO, 24 or 48 hours
Method: as §1, §2

SPEED-Cas9: split spCas9 (a.a. 2-713 and 714-1,368) tagged with NZ/CZ leucine zippers and DD sequences, joined via P2A; SEQ ID No: 28
background endonuclease activity in the absence of TMP ([1]; 12.5 ng plasmid, DMSO, 48 hours): extremely low background level of endonuclease activity, comparable to that of the negative control group using the pcDNA3.1 empty vector plasmid | TMP-dependent endonuclease activity ([1]; 12.5 ng plasmid, TMP 500 nM, 48 hours): extremely high TMP-dependent endonuclease activity | TMP-dependent endonuclease activity compared with full-length Cas9 ([1]; TMP 500 nM (FIGS. 9d and e)): comparable to that of full-length Cas9

B1: DD-Flp: Flp tagged with single DD; SEQ ID No: 15 (protein, listed as Saccharomyces cerevisiae)
chain: MVSKYPYDVPDYARSGGSGGMISLIAALAVDYVIGMENAMPWNLPADLAWFKRNTLNKPVIMGRHTWESIGRPLPGRKNIILSSQPSTDDRVTWVKSVDEAIAACGDVPEIMVIGGGRVIEQFLPKAQKLYLTHIDAEVEGDTHFPDYEPDDWESVFSEFHDADAQNSHSYCFEILERRGGSGGSGGKLVPKKKRKVGGSQFDILCKTPPKVLVRQFVERFERPSGEKIASCAAELTYLCWMITHNGTAIKRATFMSYNTIISNSLSFDIVNKSLQFKYKTQKATILEASLKKLIPAWEFTIIPYNGQKHQSDITDIVSSLQLQFESSEEADKGNSHSKKMLKALLSEGESIWEITEKILNSFEYTSRFTKTKTLYQFLFLATFINCGRFSDIKNVDPKSFKLVQNKYLGVIIQCLVTETKTSVSRHIYFFSARGRIDPLVYLDEFLRNSEPVLKRVNRTGNSSSNKQEYQLLKDNLVRSYNKALKKNAPYPIFAIKNGPKSHIGRHLMTSFLSMKGLTELTNVVGNWSDKRASAVARTTYTHQITAIPDHYFALVSRYYAYDPISKEMIALKDETNPIEEWQHIEQLKGSAEGSIRYPAWNGIISQEVLDYLSSYINRRI
modifications: MISC_FEATURE - HAtag; DOMAIN 21..179 Degradation Domain; MISC_FEATURE - Flp
background DNA recombination activity in the absence of TMP [2]: high background DNA recombination activity comparable to full-length Flp

B2: SPEED-VCre: split VCre (a.a. 2-277 and 278-380), single DD on the N-terminal and C-terminal sides; SEQ ID No: 20 (protein, listed as Vibrio parahaemolyticus)
chain: MVSKYPYDVPDYARSGGSGGMISLIAALAVDYVIGMENAMPWNLPADLAWFKRNTLNKPVIMGRHTWESIGRPLPGRKNIILSSQPSTDDRVTWVKSVDEAIAACGDVPEIMVIGGGRVIEQFLPKAQKLYLTHIDAEVEGDTHFPDYEPDDWESVFSEFHDADAQNSHSYCFEILERRGGSGGSGGKLVPKKKRKVGGIENQLSLLGDFSGVRPDDVKTAIQAAQKKGINVAENEQFKAAFEHLLNEFKKREERYSPNTLRRLESAWTCFVDWCLANHRHSLPATPDTVEAFFIERAEELHRNTLSVYRWAISRVHRVAGCPDPCLDIYVEDRLKAIARKKVREGEAVKQASPFNEQHLLKLTSLWYRSDKLLLRRNLALLAVAYESMLRASELANIRVSDMELAGDGTAILTIPITKTNHSGEPDTCILSQDVVSLLMDYTEAGKLDMSSDGFLFVGVSKHNTCIKPKKDKQTGSGSGATNFSLLKQAGDVEENPGPLEGEVLHKPITTKTVEGVFYSAWETLDLGRQGVKPFTAHSARVGAAQDLLKKGYNTLQIQQSGRWSSGAMVARYGRAILARDGAMAHSRVKTRSAPMQWGKDEKDGGSGGSGGMISLIAALAVDYVIGMENAMPWNLPADLAWFKRNTLNKPVIMGRHTWESIGRPLPGRKNIILSSQPSTDDRVTWVKSVDEAIAACGDVPEIMVIGGGRVIEQFLPKAQKLYLTHIDAEVEGDTHFPDYEPDDWESVFSEFHDADAQNSHSYCFEILERR
modifications: HAtag; DOMAIN 21..179 Degradation Domain; SIGNAL 190..197 Nuclear Localization Signal; MISC_FEATURE - N-terminal side of VCre; MISC_FEATURE - P2A; MISC_FEATURE - C-terminal side of VCre; DOMAIN 613..771 Degradation Domain
background and TMP-dependent DNA recombination activity [3]: results similar to those of SPEED-Cre

B3: SPEED-Flp: split Flp (a.a. 2-374 and 375-423), single DD on the N-terminal and C-terminal sides; SEQ ID No: 16 (protein, listed as Saccharomyces cerevisiae)
chain: MVSKYPYDVPDYARSGGSGGMISLIAALAVDYVIGMENAMPWNLPADLAWFKRNTLNKPVIMGRHTWESIGRPLPGRKNIILSSQPSTDDRVTWVKSVDEAIAACGDVPEIMVIGGGRVIEQFLPKAQKLYLTHIDAEVEGDTHFPDYEPDDWESVFSEFHDADAQNSHSYCFEILERRGGSGGSGGKLVPKKKRKVGGSQFDILCKTPPKVLVRQFVERFERPSGEKIASCAAELTYLCWMITHNGTAIKRATFMSYNTIISNSLSFDIVNKSLQFKYKTQKATILEASLKKLIPAWEFTIIPYNGQKHQSDITDIVSSLQLQFESSEEADKGNSHSKKMLKALLSEGESIWEITEKILNSFEYTSRFTKTKTLYQFLFLATFINCGRFSDIKNVDPKSFKLVQNKYLGVIIQCLVTETKTSVSRHIYFFSARGRIDPLVYLDEFLRNSEPVLKRVNRTGNSSSNKQEYQLLKDNLVRSYNKALKKNAPYPIFAIKNGPKSHIGRHLMTSFLSMKGLTELTNVVGNWSDKRASAVARTTYTHQITAIPDHYFALVSRYYAYDPISKEMIALGSGSGATNFSLLKQAGDVEENPGPLEKDETNPIEEWQHIEQLKGSAEGSIRYPAWNGIISQEVLDYLSSYINRRIGGSGGSGGMISLIAALAVDYVIGMENAMPWNLPADLAWFKRNTLNKPVIMGRHTWESIGRPLPGRKNIILSSQPSTDDRVTWVKSVDEAIAACGDVPEIMVIGGGRVIEQFLPKAQKLYLTHIDAEVEGDTHFPDYEPDDWESVFSEFHDADAQNSHSYCFEILERR
modifications: MISC_FEATURE - HAtag; DOMAIN 21..179 Degradation Domain; SIGNAL 190..197 Nuclear Localization Signal; MISC_FEATURE - N-terminal side of Flp; MISC_FEATURE - P2A; MISC_FEATURE - C-terminal side of Flp; DOMAIN 656..814 Degradation Domain
background DNA recombination activity in the absence of TMP [2]: extremely low background level of DNA recombination activity comparable to a negative control group using the pcDNA3.1 empty vector plasmid | TMP-dependent DNA recombination activity ([2]; TMP 10 nM or 500 nM): extremely high TMP-dependent DNA recombination activity
